Results reported in patent US10597433B2, “Peptides and combination of peptides for use in immunotherapy against small cell lung cancer and other cancers” (Immatics Biotechnologies GmbH, priority 2015, dated 2020).

Target: HLA-A*02:01 (Homo sapiens, UniProt P04439, D140Y/D185E/D98H/E176V/E277Q/G131W/G231S/I119V/I121R/I166T/I218V/L300P/L318F/N151K/N90K/P208A/P217A/Q86G/Q94H/R138H/R169H/T345S)
Assay: MHC binding assay: UV-ligand exchange with ELISA detection of β2m of stabilized MHC complexes
Conditions: binding to HLA-A*02:01
From the text: Candidate peptides for T cell based therapies according to the present invention were further tested for their MHC binding capacity (affinity). The individual peptide-MHC complexes were produced by UV-ligand exchange, where a UV-sensitive peptide is cleaved upon UV-irradiation, and exchanged with the peptide of interest as analyzed. Only peptide candidates that can effectively bind and stabilize the peptide-receptive MHC molecules prevent dissociation of the MHC complexes. To determine the yield of the exchange reaction, an ELISA was performed based on the detection of the light chain (β2m) of stabilized MHC complexes. The assay was performed as generally described in Rodenko et al. (Rodenko et al., 2006).
96 well MAXISorp plates (NUNC) were coated over night with 2 μg/ml streptavidin in PBS at room temperature, washed 4× and blocked for 1 h at 37° C. in 2% BSA containing blocking buffer. Refolded HLA-A*02:01/MLA-001 monomers served as standards, covering the range of 15-500 ng/ml. Peptide-MHC monomers of the UV-exchange reaction were diluted 100 fold in blocking buffer. Samples were incubated for 1 h at 37° C., washed four times, incubated with 2 μg/ml HRP conjugated anti-β2m for 1 h at 37° C., washed again and detected with TMB solution that is stopped with […]. Absorption was measured at 450 nm. Candidate peptides that show a high exchange yield (preferably higher than 50%, most preferred higher than 75%) are generally preferred for a generation and production of antibodies or fragments thereof, and/or T cell receptors or fragments thereof, as they show sufficient avidity to the MHC molecules and prevent dissociation of the MHC complexes.

Row | Peptide exchange (MHC class I binding score, peptide exchange yield) | Substance
1 | ++++ (≥75% = ++++) | 116 (ALLVRLQEV; listed as Homo sapiens) [compound 116]
2 | +++ (≥50 = +++) | 120 (SLAADIPRL; listed as Homo sapiens) [compound 120]
3 | +++ (≥50 = +++) | 111 (FLPEAPAEL; listed as Homo sapiens) [compound 111]
4 | ++++ (≥75% = ++++) | 60 (VVSGATETL; listed as Homo sapiens) [compound 60]
5 | +++ (≥50 = +++) | 83 (KLLEIDIDGV; listed as Homo sapiens) [compound 83]
6 | +++ (≥50 = +++) | 79 (RLLEPAQVQQL; listed as Homo sapiens) [compound 79]
7 | +++ (≥50 = +++) | 104 (TLIQFTVKL; listed as Homo sapiens) [compound 104]
8 | ++++ (≥75% = ++++) | 103 (SLLEYQMLV; listed as Homo sapiens) [compound 103]
9 | +++ (≥50 = +++) | 98 (ALVDHLNVGV; listed as Homo sapiens) [compound 98]
10 | +++ (≥50 = +++) | 91 (KLQDGVHII; listed as Homo sapiens) [compound 91]
11 | + (≥10% = +) | 100 (VADPETRTV; listed as Homo sapiens) [compound 100]
12 | +++ (≥50 = +++) | 123 (KLDKNPNQV; listed as Homo sapiens) [compound 123]
13 | +++ (≥50 = +++) | 67 (MLYDIVPVV; listed as Homo sapiens) [compound 67]
14 | ++++ (≥75% = ++++) | 96 (NLLKLIAEV; listed as Homo sapiens) [compound 96]
15 | +++ (≥50 = +++) | 75 (SLDLHVPSL; listed as Homo sapiens) [compound 75]
16 | ++++ (≥75% = ++++) | 87 (LLQNNLPAV; listed as Homo sapiens) [compound 87]

Row | Peptide exchange (MHC class I binding score, peptide exchange yield) | Substance
17 | +++ (≥50 = +++) | 66 (YLNLISTSV; listed as Homo sapiens) [compound 66]
18 | ++++ (≥75% = ++++) | 106 (KMPDDVWLV; listed as Homo sapiens) [compound 106]
19 | +++ (≥50 = +++) | 64 (VLFHQLQEI; listed as Homo sapiens) [compound 64]
20 | +++ (≥50 = +++) | 121 (YMLEHVITL; listed as Homo sapiens) [compound 121]
21 | ++++ (≥75% = ++++) | 105 (SMYDKVLML; listed as Homo sapiens) [compound 105]
22 | +++ (≥50 = +++) | 65 (VMYDLITEL; listed as Homo sapiens) [compound 65]
23 | +++ (≥50 = +++) | 61 (YQAPYFLTV; listed as Homo sapiens) [compound 61]
24 | ++++ (≥75% = ++++) | 88 (TLHRETFYL; listed as Homo sapiens) [compound 88]
25 | ++++ (≥75% = ++++) | 108 (ILLDDQFQPKL; listed as Homo sapiens) [compound 108]
26 | +++ (≥50 = +++) | 115 (ALLPSDCLQEA; listed as Homo sapiens) [compound 115]
27 | +++ (≥50 = +++) | 125 (LLSEPSLLRTV; listed as Homo sapiens) [compound 125]
28 | +++ (≥50 = +++) | 94 (ALFPVAEDISL; listed as Homo sapiens) [compound 94]
29 | +++ (≥50 = +++) | 114 (ALLEPGGVLTI; listed as Homo sapiens) [compound 114]
30 | +++ (≥50 = +++) | 72 (KAIGSLKEV; listed as Homo sapiens) [compound 72]
31 | +++ (≥50 = +++) | 85 (FAYDGKDYLTL; listed as Homo sapiens) [compound 85]
32 | +++ (≥50 = +++) | 81 (LLAEIGAVTLV; listed as Homo sapiens) [compound 81]

Further lines, the substance ahead of its results:

Row | Substance | Peptide exchange (MHC class I binding score, peptide exchange yield)
33 | 13 (FLTAFLVQI; listed as Homo sapiens) [compound 13] | +++ (≥50 = +++)
34 | 20 (MLDEILLQL; listed as Homo sapiens) [compound 20] | +++ (≥50 = +++)
35 | 31 (RLLQDPVGV; listed as Homo sapiens) [compound 31] | ++++ (≥75% = ++++)
36 | 3 (VLAEIDPKQLV; listed as Homo sapiens) [compound 3] | +++ (≥50 = +++)
37 | 18 (ALGEISVSV; listed as Homo sapiens) [compound 18] | +++ (≥50 = +++)
38 | 28 (ILVSQLEQL; listed as Homo sapiens) [compound 28] | ++++ (≥75% = ++++)
39 | 55 (LLIADNPQL; listed as Homo sapiens) [compound 55] | ++++ (≥75% = ++++)
40 | 12 (MLFEGLDLVSA; listed as Homo sapiens) [compound 12] | +++ (≥50 = +++)
41 | 35 (FMGDVFINV; listed as Homo sapiens) [compound 35] | ++++ (≥75% = ++++)
42 | 38 (GLISSLNEI; listed as Homo sapiens) [compound 38] | ++++ (≥75% = ++++)
43 | 5 (SLQSLIISV; listed as Homo sapiens) [compound 5] | ++++ (≥75% = ++++)
44 | 48 (SLIGLDLSSV; listed as Homo sapiens) [compound 48] | +++ (≥50 = +++)
45 | 7 (GLLGDIAIHL; listed as Homo sapiens) [compound 7] | +++ (≥50 = +++)
46 | 37 (SLFYNELHYV; listed as Homo sapiens) [compound 37] | +++ (≥50 = +++)
47 | 49 (RLALNTPKV; listed as Homo sapiens) [compound 49] | ++ (≥20% = ++)
48 | 30 (KMLGLTVSL; listed as Homo sapiens) [compound 30] | +++ (≥50 = +++)
49 | 1 (AMLEEVNYI; listed as Homo sapiens) [compound 1] | +++ (≥50 = +++)
50 | 54 (HLFDIILTSV; listed as Homo sapiens) [compound 54] | ++++ (≥75% = ++++)
51 | 34 (LVFEGIMEV; listed as Homo sapiens) [compound 34] | +++ (≥50 = +++)
52 | 45 (SLSGEIILHSV; listed as Homo sapiens) [compound 45] | ++ (≥20% = ++)
53 | 57 (VLIGDVLVAV; listed as Homo sapiens) [compound 57] | ++++ (≥75% = ++++)
54 | 19 (VLLTTAVEV; listed as Homo sapiens) [compound 19] | +++ (≥50 = +++)
55 | 47 (GLLEALLKI; listed as Homo sapiens) [compound 47] | +++ (≥50 = +++)
56 | 15 (SLLTAISEV; listed as Homo sapiens) [compound 15] | +++ (≥50 = +++)
57 | 58 (VLLNINGIDL; listed as Homo sapiens) [compound 58] | ++++ (≥75% = ++++)
58 | 26 (KMLDEAVFQV; listed as Homo sapiens) [compound 26] | ++++ (≥75% = ++++)
59 | 40 (GLLEVQVEV; listed as Homo sapiens) [compound 40] | +++ (≥50 = +++)
60 | 24 (FLMEEVHMI; listed as Homo sapiens) [compound 24] | +++ (≥50 = +++)
61 | 46 (ALWVAVPKA; listed as Homo sapiens) [compound 46] | +++ (≥50 = +++)
62 | 52 (ILASFMLTGV; listed as Homo sapiens) [compound 52] | ++++ (≥75% = ++++)
